US7294753 (Biogen, dated 2007)

B1: anti-MIF monoclonal antibody 22F11-6 (antibody, V domains shown)
VH: EVKLEESGGGLVQPGGSMKLSCAASGFTFGDAWMYWVRQSPEKGLEWVAEIRSKAHNHATYYAESVKGRFTISRDDSKSSVYLQMSSLRAEDTGIYYCTSHHYGSSWYFDVWGAGTTVTVSS
VL: DIQMTQSPASLSASVGETVTITCRASENIYSYLTWFQQKQGKSPQLLVYDAKTLAEGVPSSFSGSGSGTQFSLKIISLQPEHFGSYYCQHHYGRPYTFGGGTKLEIKR
notes: Mouse hybridoma antibody from a MIF knockout mouse, purified from ascites; also called Mab 22F11-6
B2: anti-MIF monoclonal antibody 10B11-3 (antibody, V domains shown)
VH: EVQLQQSGPELVKPGASVRISCKTSGYTITEYTMHWMKQSHEKSLEWIGGITPNTGVLSDNQKFRGKATLTVDKSSNTAYMELRSLTSADSAVYYCARRGNNYYGSSPWFAYWGQGTLVTVSA
VL: DIQMTQSPASLSVSVGETVTITCRASENIYSNLAWYQQKQGKSPQLLVYAATNLADGVPSRFSGSGSGTQYSLNIYSLQPEDFGSYYCQHFWGTPYTFGGGTKLEIKR
notes: Mouse hybridoma antibody from a MIF knockout mouse, purified from ascites; also called Mab 10B11-3; 1OB11-3
B3: anti-MIF monoclonal antibody 19B11-7 (antibody, V domains shown)
VH: QIQLVQSGPELKKPGETVKISCKASGYSFRNYGMNWVSQPPGKGLEWMGWINTYTGEPTYADDFKGRFAFSLDTSASTAYLTINNLKNEDTATYFCARSNYGNYFDYWGQGTTLTVSA
VL: NIVLTQSPASLALSLGQRATISCRTSESVDSYASSFMHWYQQKPGQSPKLLIYLASNLESGVPARFSGSGSRTDFTLTIDPVEADDAATYYCQQSNEDPRTFGGGTQLEIKR
notes: Mouse hybridoma antibody from a MIF knockout mouse, purified from ascites
B4: anti-MIF monoclonal antibody 6B5-5 (antibody, V domains shown)
VH: DVQLQESGPGLVKPSQSLSLTCTVTGSSITSDYAWHWIRQFPGNKLEWMGYISFSGSTGYNPSLKSRFSITRDTSKNQFFLQLNSVTTEDTATYYCAREAYGYDVGYFDYWGQGTTLTVSS
VL: QIVLTQSPAIMSAFPGEKVTITCSASSSVSYMHWFQQKPGTSPKLWIYGTSNLASGVPVRFSGSGSGTSYSLTISRMEAEDAATYYCQQRSSYPWTFGGGTKLEIKR
B5: anti-MIF monoclonal antibody 33G7-9 (antibody, V domains shown)
VH: DVQLQESGPDLVKPSQSLSLTCSVTGYSITSGYYWNWIRQFPGNKLEWVGYLSYDGSKSHNPSLRNRISITRDPSKNQFFLKLNSVTTEDTATYYCARGGKIFYGSSYDPFAYWGQGTLVTVSS
VL: DIQMTQSPASLSASVGETVTITCRASENIFNYLSWYQQKQGKSPQLLVYNVKTLTDGVPSRFSGSGSGTQFSLKINSLQPEDFGSYYCQHHYDTPYTFGRGTKLEIKR
B6: anti-MIF monoclonal antibody 29B12-1 (antibody, V domains shown)
VH: EVKLVESGGGSVQPGGSLKLSCATSGFIFSDYYMYWVRQTPEKRLEWVAYISIGSGNTYYPDTVKGRFTISRDIAKNTLYLQMSRLKSEDTAMYYCVRGRLRFLFDYAMDYWGQGTSVTVSS
VL: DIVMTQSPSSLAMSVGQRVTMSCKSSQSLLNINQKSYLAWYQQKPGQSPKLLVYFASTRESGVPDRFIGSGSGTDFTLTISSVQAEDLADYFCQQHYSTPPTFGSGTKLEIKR

biological target: T1, human macrophage migration inhibitory factor (MIF) (human, UniProt P14174 2-115); assay: row 'human MIF Kd < 50 nm'; method not stated
T1 construct: The off-rate columns and the bioassay columns say only 'MIF'; also called rhMIF; human MIF
T1 sequence (P14174 2-115 limits assumed): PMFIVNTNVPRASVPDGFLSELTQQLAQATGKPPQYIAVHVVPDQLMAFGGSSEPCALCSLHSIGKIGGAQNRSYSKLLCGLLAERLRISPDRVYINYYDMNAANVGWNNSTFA

Question: Which Kd does the source give for B1 here?
Answer: < 0.1 nM

Question: For B2, which Kd is on record?
Answer: < 0.1 nM

biological target: T1, human macrophage migration inhibitory …; assay: column 'Binds Human MIF'; method not stated

Question: For B1, which Kd is on record?
Answer: < 0.1 nM

Question: Which Kd does the source give for B2 here?
Answer: < 0.1 nM

Question: With B3 as the binder, how does the Kd read?
Answer: < 0.1 nM

biological target: T1, human macrophage migration inhibitory …; assay: cell-based or functional assay

Question: Which “% MIF PPT Activity” value does the source give for B4 here?
Answer: 82%

Question: What about the “MIF Stimulated SRE Transcription (% MIF Activity), 10 µg mab/ml” value of the same binder?
Answer: 36%

Question: How did the “% MIF PPT Activity” value turn out when B1 was run?
Answer: 65%

Question: What about the “MIF Stimulated SRE Transcription (% MIF Activity), 10 µg mab/ml” value of the same binder?
Answer: 42%

Question: With B5 as the binder, how does the “% MIF PPT Activity” value read?
Answer: 67%

Question: What about the “MIF Stimulated SRE Transcription (% MIF Activity), 10 µg mab/ml” value of the same binder?
Answer: 5%

Question: For B2, which “% MIF PPT Activity” value is on record?
Answer: 136%

Question: How did the “% MIF PPT Activity” value turn out when B3 was run?
Answer: 0%

Question: What about the “MIF Stimulated SRE Transcription (% MIF Activity), 10 µg mab/ml” value of the same binder?
Answer: 29%

Question: What does the source list for B6?
Answer: % MIF PPT Activity: 146%; MIF Stimulated SRE Transcription (% MIF Activity), 10 µg mab/ml: 25%

biological target: T1, human macrophage migration inhibitory …; assay: cell-based or functional assay; remark: another data set of the same source

Question: How did the “% MIF PPt Activity” value turn out when B4 was run?
Answer: 82%

Question: And the “MIF Stimulated SRE Transcription (% MIF Activity), 10 µg mab/ml” value?
Answer: 36%

Question: Which “% MIF PPt Activity” value does the source give for B1 here?
Answer: 65%

Question: And the “MIF Stimulated SRE Transcription (% MIF Activity), 10 µg mab/ml” value?
Answer: 42%

Question: Which “% MIF PPt Activity” value does the source give for B5 here?
Answer: 67%

Question: What about the “MIF Stimulated SRE Transcription (% MIF Activity), 10 µg mab/ml” value of the same binder?
Answer: 5%

Question: How did the “% MIF PPt Activity” value turn out when B2 was run?
Answer: 136%

Question: How did the “% MIF PPt Activity” value turn out when B3 was run?
Answer: 0%

Question: And the “MIF Stimulated SRE Transcription (% MIF Activity), 10 µg mab/ml” value?
Answer: 29%

Question: For B6, which “% MIF PPt Activity” value is on record?
Answer: 146%

Question: What about the “MIF Stimulated SRE Transcription (% MIF Activity), 10 µg mab/ml” value of the same binder?
Answer: 25%

biological target: T1, human macrophage migration inhibitory …; assay: cell-based or functional assay; remark: another data set of the same source

Question: With B4 as the binder, how does the “% MIF PPT Activity” value read?
Answer: 82%

Question: B1 was tested. Which “% MIF PPT Activity” value did it give?
Answer: 65%

Question: Which “% MIF PPT Activity” value does the source give for B5 here?
Answer: 67%

Question: For B2, which “% MIF PPT Activity” value is on record?
Answer: 136%

Question: For B3, which “% MIF PPT Activity” value is on record?
Answer: 0%

Question: Which “% MIF PPT Activity” value does the source give for B6 here?
Answer: 146%

biological target: T1, human macrophage migration inhibitory …; assay: column 'Binds Human MIF'; method not stated; remark: another data set of the same source

Question: How did the Kd turn out when B1 was run?
Answer: < 0.1 nM

Question: For B2, which Kd is on record?
Answer: < 0.1 nM

Question: With B3 as the binder, how does the Kd read?
Answer: < 0.1 nM
